One block for each binder: values may come before it.
What was measured:
[1] = target: T1, soluble hek/Fc fusion protein (human, UniProt P29320 21-541; P01857 99-330 = IgG part, limits assumed); experiment: indirect Scatchard analysis; hek/Fc titrated on transfected CV-1/EBNA-1 cells, detected with 125I-mouse anti-human IgG
T1 construct: extracellular domain;domain: Fc region (hinge to native C-terminus); The extracellular domain and the dimeric state are inferred from that analogy

[2] = target: T2, soluble rat elk/Fc fusion protein (rat; human, UniProt P09759 18-540; P01857 99-330 = IgG part, limits assumed); experiment: indirect Scatchard analysis, biphasic, first component; elk/Fc titrated on transfected CV-1/EBNA-1 cells, detected with 125I-mouse anti-human IgG
T2 construct: extracellular domain;domain: Fc region (hinge to native C-terminus)
T2 sequence (P09759 other isoform, or with tags, fused parts or gaps limits assumed): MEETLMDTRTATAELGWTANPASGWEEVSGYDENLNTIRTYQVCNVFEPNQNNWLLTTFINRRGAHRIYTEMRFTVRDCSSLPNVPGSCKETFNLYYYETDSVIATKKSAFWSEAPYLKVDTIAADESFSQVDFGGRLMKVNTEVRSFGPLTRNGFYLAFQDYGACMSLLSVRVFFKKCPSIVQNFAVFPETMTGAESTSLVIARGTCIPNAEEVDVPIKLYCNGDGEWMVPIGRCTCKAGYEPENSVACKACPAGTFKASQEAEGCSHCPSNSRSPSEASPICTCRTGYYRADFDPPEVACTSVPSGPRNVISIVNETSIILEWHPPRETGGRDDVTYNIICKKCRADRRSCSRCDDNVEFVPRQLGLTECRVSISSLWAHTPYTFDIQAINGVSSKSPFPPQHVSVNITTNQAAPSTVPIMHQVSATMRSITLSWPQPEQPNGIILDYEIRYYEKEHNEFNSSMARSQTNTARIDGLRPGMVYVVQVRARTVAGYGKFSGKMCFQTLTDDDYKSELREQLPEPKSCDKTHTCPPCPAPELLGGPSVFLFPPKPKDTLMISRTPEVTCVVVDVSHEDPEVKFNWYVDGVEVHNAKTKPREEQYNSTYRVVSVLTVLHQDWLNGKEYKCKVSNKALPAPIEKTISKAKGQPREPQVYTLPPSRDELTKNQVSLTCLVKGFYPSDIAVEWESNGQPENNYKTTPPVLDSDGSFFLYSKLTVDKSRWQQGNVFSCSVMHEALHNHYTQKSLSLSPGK

[3] = target: T2, soluble rat elk/Fc fusion protein; experiment: indirect Scatchard analysis, biphasic, second component; elk/Fc titrated on transfected CV-1/EBNA-1 cells, detected with 125I-mouse anti-human IgG
[4] = target: T2, soluble rat elk/Fc fusion protein; experiment: indirect Scatchard analysis; elk/Fc titrated on transfected CV-1/EBNA-1 cells, detected with 125I-mouse anti-human IgG
From the text: CV1-EBNA-1 cells (described in Example 3) in 12-well plates (2.5×10⁵ cells/well) were transfected with an expression vector containing the clone E7 elk-L cDNA. The mammalian expression vector, designated pDC410, is similar to pDC406 (McMahan et al., EMBO J. 10:2821, 1991). In pDC410, the EBV origin of replication of pDC406 is replaced by DNA encoding the SV40 large T antigen (driven from an SV40 promoter). The pDC410 multiple cloning site (mcs) differs from that of pDC406 in that it contains additional restriction sites and three stop codons (one in each reading frome). A T7 polymerase promoter downstream of the mcs facilitates sequencing of DNA inserted into the mcs. The transfected cells were cultured for two days to permit expression of the elk-L protein, then washed with BM-NFDMv (the binding medium described in Example 2, also containing 50 mg/ml nonfat dry milk), and incubated with various concentrations of the elk/Fc fusion protein prepared in Example 1, for 1 hour at 37° C. Subsequently, cells were washed and incubated with a constant saturating concentration of the ¹²⁵I-labeled mouse anti-human IgG antibody prepared in Example 2 (40 ng/ml) in binding medium with gentle agitation for 1 hour at 37° C. Cells then were harvested by trypsinization. […]

[5] = target: T1, soluble hek/Fc fusion protein; experiment: indirect Scatchard analysis, biphasic, first component; hek/Fc titrated on transfected CV-1/EBNA-1 cells, detected with 125I-mouse anti-human IgG
[6] = target: T1, soluble hek/Fc fusion protein; experiment: indirect Scatchard analysis, biphasic, second component; hek/Fc titrated on transfected CV-1/EBNA-1 cells, detected with 125I-mouse anti-human IgG

T1 sequence (P29320 other isoform, or with tags, fused parts or gaps limits assumed): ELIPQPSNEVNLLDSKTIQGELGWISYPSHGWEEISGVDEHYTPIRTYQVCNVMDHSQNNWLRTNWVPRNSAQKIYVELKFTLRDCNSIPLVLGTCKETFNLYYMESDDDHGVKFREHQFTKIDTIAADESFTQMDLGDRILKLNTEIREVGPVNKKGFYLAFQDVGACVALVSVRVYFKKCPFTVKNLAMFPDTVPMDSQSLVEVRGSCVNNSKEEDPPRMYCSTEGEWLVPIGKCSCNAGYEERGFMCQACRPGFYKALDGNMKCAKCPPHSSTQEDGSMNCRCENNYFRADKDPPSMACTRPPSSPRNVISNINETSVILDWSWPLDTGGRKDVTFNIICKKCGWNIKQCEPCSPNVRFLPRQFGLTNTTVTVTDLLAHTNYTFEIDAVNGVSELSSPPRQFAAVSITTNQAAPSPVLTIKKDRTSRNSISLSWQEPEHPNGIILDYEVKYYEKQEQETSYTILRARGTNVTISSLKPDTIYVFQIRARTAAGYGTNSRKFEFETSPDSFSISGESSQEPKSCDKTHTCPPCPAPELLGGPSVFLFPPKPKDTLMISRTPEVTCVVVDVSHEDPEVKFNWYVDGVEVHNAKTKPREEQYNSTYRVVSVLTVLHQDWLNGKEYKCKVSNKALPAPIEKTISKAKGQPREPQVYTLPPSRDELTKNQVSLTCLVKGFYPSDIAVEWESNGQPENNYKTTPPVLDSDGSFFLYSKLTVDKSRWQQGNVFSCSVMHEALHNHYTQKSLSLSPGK

Ka [1]: 2e+08 M⁻¹
Ka [2]: 1.3e+08 M⁻¹
Ka [3]: 5.4e+07 M⁻¹
B3: hek-L protein designated C6, expressed on transfected CV-1/EBNA-1 cells (ligand, UniProt P52798 26-170, looked up)
chain: LRHVVYWNSSNPRLLRGDAVVELGLNDYLDIVCPHYEGPGPPEGPETFALYMVDWPGYESCQAEGPRAYKRWVCSLPFGHVQFSEKIQRFTPFSLGFEFLPGETYYYISVPTPESSGQCLRLQVSVCCKERKSESAHPVGSPGES
notes: whole, on cells; also called hek-L C6; hek ligand C6

Ka [4]: 1.08e+09 M⁻¹
Ka [5]: 2.3e+07 M⁻¹
Ka [6]: 2.9e+06 M⁻¹
B4: human elk ligand (elk-L), clone E7, expressed on transfected CV-1/EBNA-1 cells (ligand)
chain: ATPLAKNLEPVSWSSLNPKFLSGKGLVIYPKIGDKLDIICPRAEAGRPYEYYKLYLVRPEQAAACSTVLDPNVLVTCNRPEQEIRFTIKFQEFSPNYMGLEFKKHHDYYITSTSNGSLEGLENREGGVCRTRTMKIIMKVGQDPNAVTPEQLTTSRPSKEADNTVKMATQAPGSRGSLGDSDGKHETVNQEEKSGPGASGGSSGDPDGFFNSKVALFAAVGAGCVIFLLIIIFLTVLLLKLRKRHRKHTQQRAAALSLSTLASPKGGSGTAGTEPSDIIIPLRTTENNYCPHYEKVSGDYGHPVYIVQEMPPQSPANIYYKV

Second part, the binder before the results:

B1: hek-L protein designated A2, expressed on transfected CV-1/EBNA-1 cells (ligand, UniProt P52797 23-214, looked up)
chain: QGPGGALGNRHAVYWNSSNQHLRREGYTVQVNVNDYLDIYCPHYNSSGVGPGAGPGPGGGAEQYVLYMVSRNGYRTCNASQGFKRWECNRPHAPHSPIKFSEKFQRYSAFSLGYEFHAGHEYYYISTPTHNLHWKCLRMKVFVCCASTSHSGEKPVPTLPQFTMGPNVKINVLEDFEGENPQVPKLEKSISG
notes: whole, on cells; also called hek-L A2; hek ligand A2
Ka [1]: 2e+08 M⁻¹
Ka [2]: 2.7e+08 M⁻¹
Ka [3]: 3.5e+07 M⁻¹

B2: B61 protein expressed on transfected CV-1/EBNA-1 cells (ligand, human, UniProt P20827 19-182, looked up)
chain: DRHTVFWNSSNPKFRNEDYTIHVQLNDYVDIICPHYEDHSVADAAMEQYILYLVEHEEYQLCQPQSKDQVRWQCNRPSAKHGPEKLSEKFQRFTPFTLGKEFKEGHSYYYISKPIHQHEDRCLRLKVTVSGKITHSPQAHDNPQEKRLAADDPEVRVLHSIGHS
notes: whole, on cells
Ka [1]: 5.5e+07 M⁻¹
Ka [2]: 2.3e+08 M⁻¹
Ka [3]: 7e+07 M⁻¹
